Reference: patent US9902783B2, “Antibodies and pharmaceutical compositions containing same useful for inhibiting activity of metalloproteins” (Yeda Research and Development Co. Ltd., priority 2007, dated 2018)

Key:
[1] = tested on: DSS-induced colitis; assay: DSS induced acute colitis in mice; assay type: in vivo, C57BL/6 mice; details: for reduction in colon length: 11 days after DSS induction, versus naïve mice
Protocol: FIGS. 15A-15C are graphs illustrating the effect of 6C6 treatment on the various manifestations of acute DSS colitis in C57BL/6 mice. Disease was induced by 2% DSS for 5 days. 6C6 treatment, 5 or 1.5 mg/kg mouse, was administered by daily i.p. injection starting from day 0. FIG. 15A: Clinical score was evaluated by daily monitoring of DAI (which is the combined score of body weight, rectal bleeding and stool consistency, on a scale of 0-4). Data are expressed as the dot distribution of a mean for each animal of days 6 to 10. FIG. 15B: Colon length. FIG. 15C: Mortality. The data presented are the combined results of two experiments, with a total of 15 mice per group.*, significant effect over colitis-untreated mice (p<0.05).
To explore the inhibitory activity of 6C6, the ability of mAb treatment to ameliorate DSS induced acute colitis was examined Specifically, 2% DSS was provided to the highly susceptible mouse strain C57BL/6 for five days. 6C6 treatment was given daily by intraperitoneal injections of 1.5 or 5 […], starting at the day of induction. Mice exposed to 2% DSS developed symptoms of acute colitis, with diarrhea, rectal bleeding and severe weight loss.

[2] = target: T1, catalytic zinc ion of MMP9 (Homo sapiens, UniProt P14780); assay: X-ray absorption spectroscopy of MMP9-6C6 complex; details: zinc K edge XAS, MMP-9 catalytic domain-mAb complex
T1 construct: lacking the hinge region and the hemopexin domain, Ala1-Gly424 |P14780|MMP9_HUMAN; made in house
From the text: FIG. 16 is a graph of results from X-ray absorption spectroscopy at the zinc K edge of active MMP9 (black) and inhibited MMP9-6C6 complex (red). The results are presented in the form of radial distribution from the zinc ion. The edge position the MMP-9 catalytic domain-mAb complex (red) shifts to a higher energy relative to active MMP-9 (inset) indicating binding to the catalytic zinc ion. […] Remarkably, this mode of binding is analogous to the binding of TIMPs at the active site of MMPs.
In order to further study the differences between active MMP9 and an inhibited MMP9-6C6 complex, X ray absorption spectroscopy was performed. […] The data is presented in the form of Fourier transform (FT) spectra to provide the radial distribution of the various atoms within the first and second coordination shells of the catalytic zinc ion in MMP9. Apparent change in the radial distribution spectra of the free and inhibited enzyme can be observed above the noise level. These spectral changes indicate that the local environment of the catalytic zinc ion undergoes structural changes upon binding to 6C6. The observed deviation in both spatial distribution and peak intensities of the FT spectral features between the active and the inhibited enzyme indicate unequivocally that the local structure of the catalytic zinc changes upon mAb complex formation.

[3] = target: T2, MMP-2 catalytic domain (MMP-2cat) (Mus musculus, UniProt P33434); assay: immuno affinity pull down of MMP-2 catalytic domain; assay type: binding; details: SDS-PAGE
T2 construct: NP_032636.1; made in house; host or cells: BL-21 cells (E. coli)
Protocol: FIGS. 3A-3C are western blot images showing the ability of mouse IgG-Agarose immobilized mAbs to pull down recombinant MMP-2 catalytic domain (MMP-2cat) or Pro-MMP-2 and Pro-MMP-9 from solution. Antibodies used for each experiment are 6C6, 13E11, and 13E15. FIG. 3A—MMP-2cat (2 μg) was incubated with anti-mouse IgG-Agarose (cntl, lane1) or anti CoTCPP, ZnTCPP and Imisdp mAb (10 μg)-anti-mouse IgG-Agarose for 2 hr at 20° C., immunoprecipitates (lane 2, 3, 5) were centrifuged and washed three times, separated on SDS/PAGE gel and visualized by Coomassie-staining. […]
FIGS. 11A-11D are photographs and models illustrating that 6C6 binds only the active conformation of MMP9 and MMP2. […] FIGS. 11B,C: 6C6 mAb immobilized to protein A beads was analyzed for its ability to pull down ProMMP2, ProMMP9, or MMP2 catalytic fragment (lacking the hemopexin and pro domains) from solution. […]
MAbs (10 μg) were incubated with anti mouse IgG Agarose beads (Sigma) overnight at 4° C. in PBS. […] The proteins that remained bound to the beads were eluted with SDS sample buffer, fractionated by SDS-PAGE, and detected by staining with Coomassie blue.

T2 sequence (P33434 110-467): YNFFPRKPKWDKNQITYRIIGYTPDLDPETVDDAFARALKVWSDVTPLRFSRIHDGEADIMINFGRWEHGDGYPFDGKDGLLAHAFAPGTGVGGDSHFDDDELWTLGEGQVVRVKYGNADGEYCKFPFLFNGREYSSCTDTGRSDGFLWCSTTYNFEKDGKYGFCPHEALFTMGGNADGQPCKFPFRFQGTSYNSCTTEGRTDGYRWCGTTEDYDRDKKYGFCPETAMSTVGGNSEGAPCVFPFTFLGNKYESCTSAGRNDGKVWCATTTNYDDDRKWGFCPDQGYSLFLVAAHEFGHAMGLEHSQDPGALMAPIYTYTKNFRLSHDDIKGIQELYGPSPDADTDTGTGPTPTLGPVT
T1 sequence (P14780 94-444): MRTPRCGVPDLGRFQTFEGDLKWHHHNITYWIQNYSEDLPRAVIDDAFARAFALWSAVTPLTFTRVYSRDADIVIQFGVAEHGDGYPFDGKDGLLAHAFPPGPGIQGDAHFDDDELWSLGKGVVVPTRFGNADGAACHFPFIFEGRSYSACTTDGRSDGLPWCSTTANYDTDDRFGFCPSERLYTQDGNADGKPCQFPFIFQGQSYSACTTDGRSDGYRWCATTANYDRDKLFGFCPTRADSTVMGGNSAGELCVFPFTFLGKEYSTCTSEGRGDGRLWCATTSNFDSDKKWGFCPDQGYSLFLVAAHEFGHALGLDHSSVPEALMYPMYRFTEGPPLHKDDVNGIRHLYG

B1: 6C6: monoclonal antibody, IgG2a, raised against the hapten Imisdp; MMP-2 and MMP-9 inhibitory; SEQ ID NO: 1 (protein)
chain: CMETTQTPLSLPVSLGDQASISCRSSQSIVHSNGNTFLEWYLQKPGQSPKLLIYKVSNCRFSGVPDRFSGSGSGTDFTLKISRVEAEDLGVYYCFQASHVPPTFGGG
modifications: 6c6 mAb light chain
[1]; 1.5 mg/kg mouse daily i.p.
  reduction in colon length: 22%
[1]; 5 mg/kg mouse daily i.p.
  reduction in colon length: 16%
[1]; 2% DSS 5 days, daily i.p. mAb from day 0, versus untreated control
  disease activity index (DAI): decreased disease activity
[1]; 11 days after induction, 6C6 treated mice
  mortality rate: 33%
[2]
  binding mode at the catalytic zinc ion: directly binds the zinc ion
[3]
  binding to MMP-2 catalytic domain: formation of a specific complex
